Experimental data taken from the supplement of paper PMC10126150.
± gives the standard deviation of the averaged measurements.

Test system: ATP
Test: switch fluorescence ratio, 500 uM ATP over buffer (Cy3 cluster intensity, sum of 5 cycles each) (fold (ratio)); higher = stronger signal-on switching upon ATP binding; sequences stand for … in TCGTCGGCAGCGTCAGATGTGTATAAGAGACAGTTTTTTTTTTTTTTTTTTTTTTTTT…TC
Details: aptamer strand: ATP DNA aptamer (quencher-CACCTGGGGGAGTATTGCGGAGGAAGG + anchor), 100 nM annealed; ATP concentration: 500 uM
Method in brief: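 Switching-strand clusters labelled with Cy3 on a modified Illumina MiSeq flow-cell were annealed to 100 nM quencher-labelled ATP aptamer, imaged in selection buffer, and re-imaged after 15 min with 500 uM ATP at 22 °C. This was done over five cycles with NaOH stripping and re-annealing in between. The fluorescence ratio is summed target-cycle over summed buffer-cycle Cy3 intensity per cluster, averaged per switch-domain sequence, excluding clusters outside 100-1000 RFU.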
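Also: ATP exposure 15 min at 22 °C before imaging.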

Sequence | switch fluorescence ratio
TTTCATTCGG | 1.06 ± 0.13
TTAAGTTTAC | 1.01 ± 0.038
TCCGAACCTT | 1.88 ± 0.086
CATCATGTCT | 1.01 ± 0.03
AGGGTAAACG | 0.986 ± 0.024
AATGGTTGAC | 0.988 ± 0.017
CGTTTATTG | 0.9967 ± 0.0085
AAAGGGAGGG | 1 ± 0.02
GTAAACGGGT | 0.963 ± 0.016
CGGATGCATG | 1.02 ± 0.046
TGCTGGACTT | 0.987 ± 0.015
CGGGCCCGTA | 0.961 ± 0.094
AGTTTATTAC | 1.47 ± 0.68
TCGGAGGCGG | 1.007 ± 0.0069
CCCATTGTCG | 1.01 ± 0.064
TTATCGGGG | 0.942 ± 0.053
GAGGTGGCAG | 1.0097 ± 0.00096
GTTGTTTTAA | 1.05 ± 0.011
ATCAAAATTT | 1.03 ± 0.028
TACTTGTTAT | 0.989 ± 0.034
GAAACTTGCA | 1.075 ± 0.0066
AGTAAAAAGG | 0.993 ± 0.021
AAGCATTAGT | 1.05 ± 0.04

Sequence | switch fluorescence ratio
CTGTGAGTTT | 1.007 ± 0.0094
TCATGGAGGT | 0.96 ± 0.03
AGAAGGCCGG | 0.98 ± 0.056
CGAATTGTTT | 0.962 ± 0.03
AGGGGGGAAG | 0.989 ± 0.023
TGTTTTTTAT | 1.02 ± 0.047
TAGCGATGCG | 1.031 ± 0.0042
TCAGTCATCT | 1 ± 0.013
GGGTTTAGAG | 0.9877 ± 0.0093
GTTATTAGCG | 0.969 ± 0.05
AGGAGGGGT | 1.02 ± 0.07
GACACGGGCG | 1.044 ± 0.0035
TGAACTTGCT | 1.02 ± 0.074
TTATTCATGT | 0.984 ± 0.011
AAATGGCCAT | 1.01 ± 0.013
CTGTGGGGGT | 1.04 ± 0.012
TGTTTTTAGT | 0.9945 ± 0.0039
CGGCCGAGGT | 1.02 ± 0.02
TGGAATTAAC | 1.02 ± 0.042
GGAATGTTGC | 0.9733 ± 0.0039
GGGGGAGCCC | 0.9896 ± 0.0091
ACTGGGAGTG | 1 ± 0.042
TTTATTCGCG | 1.03 ± 0.029

Sequence | switch fluorescence ratio
TCATGAAGGA | 0.964 ± 0.018
GTCAATGGGA | 1 ± 0.029
TGGGGGGACC | 1.03 ± 0.05
CCGTTCGACA | 1.37 ± 0.058
CTGAAGGATT | 1.01 ± 0.011
TAGTGCTTGG | 0.9827 ± 0.0087
GGGGAATGCG | 1.01 ± 0.0065
TAGGAAAAAG | 0.975 ± 0.013
CATTATGTGA | 0.987 ± 0.051
AAGCCGTGGC | 0.975 ± 0.11
CCAGGAACTC | 1.02 ± 0.025
CACTCATACT | 1.16 ± 0.029
TTATATTAAG | 1.01 ± 0.031
GCATGGGCAG | 0.999 ± 0.023
CCTGGGTCTA | 1.03 ± 0.023
AAGCCGGGCT | 1.02 ± 0.029
GTTTTCAGGG | 1.02 ± 0.037
CGGTTACCTG | 0.9708 ± 0.0074
GTTAGCACCC | 1.04 ± 0.04
GGAGGGGGCG | 0.999 ± 0.061
CTGGCCAGTT | 1 ± 0.013
GCTGGTGTTG | 1 ± 0.013
AATGTGGGTG | 1.03 ± 0.045

Sequence | switch fluorescence ratio
TTGGGCTTTT | 0.996 ± 0.017
TGAACATTTT | 1.07 ± 0.079
AGCTCTAAAT | 1.04 ± 0.068
TTTGTCTGAC | 0.9946 ± 0.0028
TCGTAGTGGC | 1.11 ± 0.1
CGGACTAAGA | 1.04 ± 0.012
ATTAATGGGT | 1.02 ± 0.027
GTATTGGTTG | 0.983 ± 0.026
TTTGATGGGG | 0.988 ± 0.025
TTTGTTGTTT | 0.986 ± 0.013
TTGTAGGTAT | 0.999 ± 0.069
TTTTGACGCT | 0.977 ± 0.012
GGTCGGGTGC | 0.971 ± 0.047
TGATGGGGG | 0.981 ± 0.016
GTGTTTAAGC | 0.978 ± 0.012
TGCATTTTTG | 1.06 ± 0.053
GGTTGCTGCC | 0.9917 ± 0.0029
GATATAGTGT | 0.991 ± 0.02
GGAGGTTGGC | 1.02 ± 0.07
TTTGAGATTG | 0.99556 ± 0.00097
GCTTTCTCGG | 1.08 ± 0.048
AAGCAATGGG | 1.45 ± 0.037
TAGGGATAGT | 0.9986 ± 0.0052

Sequence | switch fluorescence ratio
AATATAAATA | 1.019 ± 0.0072
AATTTAATTT | 1.015 ± 0.006
ATTGATTGCT | 0.9989 ± 0.0036
TGTTTTTGTT | 1.01 ± 0.058
TATTTGGGGG | 1.01 ± 0.029
TTTATATTAA | 1.03 ± 0.049
ACTTTAGCAG | 1.034 ± 0.0063
CGAGGGGCAC | 0.997 ± 0.013
TTTTGGAGCC | 1.06 ± 0.046
ACTAGGTATT | 1.03 ± 0.033
GAAGGGCAGT | 0.966 ± 0.029
CTCCAATAGT | 1.79 ± 0.044
GATAGGGGTT | 0.975 ± 0.022
CCCTAGGGTC | 1.01 ± 0.023
GGTGTTGAGA | 1.01 ± 0.04
AGGTGTCGTC | 0.975 ± 0.018
GTTGTTCAAA | 0.989 ± 0.015
AATTCCTAGG | 1.03 ± 0.025
TGTTTCTTTT | 1.01 ± 0.024
GCGGTTAGCT | 1.04 ± 0.066
AAAGCATAGG | 1.03 ± 0.015
AGGTGACGAG | 1.02 ± 0.014
AATGTAAAG | 1.03 ± 0.011

Sequence | switch fluorescence ratio
TACCCTGAAA | 1.022 ± 0.0035
TCGACAGTCC | 1.037 ± 0.0085
GCATGGTGAC | 1.058 ± 0.0028
AGTGCTTACG | 0.995 ± 0.025
TACTATGGGC | 1.03 ± 0.055
TTCTGTTAAA | 1.02 ± 0.027
AAAAGGTGG | 0.983 ± 0.011
AAAACGCAGG | 1.02 ± 0.053
ACATCTAGGC | 1.069 ± 0.0093
TTACAGGTTC | 1.031 ± 0.0019
ATTGGGAAGG | 0.965 ± 0.039
GGATTAGGGC | 1.02 ± 0.041
CCGGTTTTTT | 1.003 ± 0.0078
GGGTAAATTG | 1.041 ± 0.0068
GTTAAGAAAG | 1.01 ± 0.012
GTTGTATCAC | 0.9832 ± 0.0097
TTTATTTAAC | 1.052 ± 0.01
TGACTTTTTA | 0.9933 ± 0.0075
ACGTGTAAGC | 1.03 ± 0.035
TTTTTGAGTA | 1.02 ± 0.03
ATGTGTAAAG | 0.98 ± 0.017
GCCCGGGAGC | 1 ± 0.037
GGTAACGTAG | 0.991 ± 0.022

Sequence | switch fluorescence ratio
AATCTGTTCG | 0.9708 ± 0.004
AGACGAGAAT | 1.09 ± 0.14
GTCTTATATT | 1.01 ± 0.06
TGGGTCGGCT | 1.06 ± 0.1
ATCATGGGAC | 1.03 ± 0.0069
GCAGTATGAG | 0.99 ± 0.021
TATATGAGTT | 0.963 ± 0.0099
GCTCAAGGTA | 1.006 ± 0.0044
AAGGTATTGC | 0.9947 ± 0.0061
AACGCAGGAG | 1.48 ± 0.025
AGTCGTCTTG | 0.977 ± 0.026
AGGTCAAGAA | 1.07 ± 0.079
GGTTATGGCT | 0.9973 ± 0.0025
AATATGTATG | 0.996 ± 0.024
TCCATACTGG | 1.004 ± 0.0073
GCAAAATAAA | 1.05 ± 0.12
TTTTTTCGCT | 1.02 ± 0.047
TAGCGTTTTT | 0.97 ± 0.018
GAACGTCCAG | 0.99 ± 0.027
